Patent publication US11541086

Molecular target: amyloid-beta oligomers prepared from synthetic Aβ1-42 (UniProt P05067)
Test: cell-based or functional assay

Chain of UniProt P05067 (P05067 672-713 limits assumed): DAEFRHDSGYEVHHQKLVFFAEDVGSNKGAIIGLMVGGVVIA

“NUsc1 scFv expressed and secreted by neurons transduced with the AAV9 vector AAV-NUsc1” showed an AβO binding to dendrites in hippocampal neurons (NU4 immunoreactivity) of 50 % decrease.
